Experimental data reported in patent US20230374116A1.
Where two headings read alike, the source gives them in different places.

B1: NbSA_A10 (VHH)
VHH: QVQLVESGGGLVQAGDSLRLSCAASGRTFSTTRMAWFRQPPGKEREFVAAIFLNTGTTYYADPVKDRFAISRDNAKNTVYLQMNSLKPEDTAVYYCAAGRFSAAPLTQSTAFESWGQGTQVTVSA
B2: 8_G11 (VHH)
VHH: QVQLVESGGGLVQAGGSLRLSCAASGRTITEYTIGWFRQAPGKEREFVTLISKSTDSTWDADSVKGRFTIARDYAKNTVYLQMNSLKPEDTAVYYCAAGSFYGRDSDAGGYDYWGQGTQVTVSS
B3: 3_C5 (VHH)
VHH: QVQLVESGGGLVQAGGSLRLSCAASGRTLSMRRMSWFRQAPGKEREFVATINWSSGSIYVTDSVKDRFTISRDNAENTVHLQMNMLKPEDTAVYSCAVQVDIGGYLDGYDYWGQGTQVTVSS
B4: NbSA_D10 (VHH)
VHH: QVQLVESGGGLVQVGGSLRLSCAVSGRTSSDYSVGWFRRAQGKEREFVAALAWTVGATHYGDSVKGRFTVSRDNAKNMVYLQIDSLKPEDTGVYYCAGRYGAGLGFTERIYDYWGQGTQVTVSS
B5: 12_F11 (VHH)
VHH: QVQLVESGGGLVQAGGSLRLSCAASGGAFSTSAMGWFRQAPGKEREFVAVIGWRGVRTYYADSVKGRFTIARDNPQNRVYLEMSSLKSDDTGVYFCAASDGNYGLPWAHFEYDFWGQGIQVTSS

Experiments:
Beta RBD-Fc [1] = target: Beta RBD-Fc
Beta RBD-Fc [2] = target: Beta RBD-Fc; remark: listed apart in the source

| Binder | Kd (Beta RBD) [nM] | Kd (Beta RBD-Fc [1]) [nM] | T1/2 (Beta RBD-Fc [1]) [min] | koff (Beta RBD-Fc [1]) [s⁻¹] | kon (Beta RBD-Fc [1]) [M⁻¹ s⁻¹] | T1/2 (Beta RBD-Fc [2]) [min] | koff (Beta RBD-Fc [2]) [s⁻¹] | kon (Beta RBD-Fc [2]) [M⁻¹ s⁻¹] |
| --- | --- | --- | --- | --- | --- | --- | --- | --- |
| B1 | 0.03 |  |  |  |  |  |  |  |
| B2 |  | 0.443 | 20 | 0.00057 | 1.3e+06 |  |  |  |
| B3 |  | 0.895 | 14 | 0.0008 | 900000 |  |  |  |
| B4 | 0.936 |  |  |  |  | 18 | 0.0006 | 640000 |
| B5 |  | 0.236 | 12 | 0.00096 | 4.1e+06 |  |  |  |
